Target: NELF complex WT (NELF-A/B/C-D/E) (human, UniProt Q9H3P2;Q8WX92;Q8IXH7;P18615 1-528;49-628;1-590;1-380)
Test: fluorescence anisotropy; NELF-TAR complex: 20 mM HEPES/NaOH pH 7.4, 150 mM NaCl, 10% glycerol, 1 mM DTT, mixed 30 min at 4 C; anisotropy conditions only by reference [29]; Hsh49-Cus1-U2 reconstituted 30 min on ice; Dnmt2 dialysed in 50 mM HEPES pH 7.5, 150 mM NaCl, 2 mM DTT
Conditions: protein: recombinant; copies: 1;1;1;1; hairpin

Sequence of NELF complex WT (NELF-A/B/C-D/E) (Q9H3P2 whole entry, chain 1 of 4): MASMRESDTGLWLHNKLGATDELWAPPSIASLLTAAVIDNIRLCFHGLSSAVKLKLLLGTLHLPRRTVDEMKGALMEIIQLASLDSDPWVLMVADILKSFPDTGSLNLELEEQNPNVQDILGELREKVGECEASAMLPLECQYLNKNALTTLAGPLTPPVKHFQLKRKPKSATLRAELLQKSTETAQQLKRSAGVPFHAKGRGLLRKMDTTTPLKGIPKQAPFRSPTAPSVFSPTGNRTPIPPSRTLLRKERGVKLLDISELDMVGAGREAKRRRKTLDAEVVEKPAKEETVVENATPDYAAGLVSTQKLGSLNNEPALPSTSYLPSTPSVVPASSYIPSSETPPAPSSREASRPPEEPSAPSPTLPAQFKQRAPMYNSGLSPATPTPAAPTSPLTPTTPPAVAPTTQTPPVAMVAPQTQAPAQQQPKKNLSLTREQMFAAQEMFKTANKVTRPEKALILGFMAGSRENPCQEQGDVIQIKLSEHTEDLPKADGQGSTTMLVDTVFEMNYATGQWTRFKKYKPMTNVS
Sequence of NELF complex WT (NELF-A/B/C-D/E) (Q8WX92 whole entry, chain 2 of 4): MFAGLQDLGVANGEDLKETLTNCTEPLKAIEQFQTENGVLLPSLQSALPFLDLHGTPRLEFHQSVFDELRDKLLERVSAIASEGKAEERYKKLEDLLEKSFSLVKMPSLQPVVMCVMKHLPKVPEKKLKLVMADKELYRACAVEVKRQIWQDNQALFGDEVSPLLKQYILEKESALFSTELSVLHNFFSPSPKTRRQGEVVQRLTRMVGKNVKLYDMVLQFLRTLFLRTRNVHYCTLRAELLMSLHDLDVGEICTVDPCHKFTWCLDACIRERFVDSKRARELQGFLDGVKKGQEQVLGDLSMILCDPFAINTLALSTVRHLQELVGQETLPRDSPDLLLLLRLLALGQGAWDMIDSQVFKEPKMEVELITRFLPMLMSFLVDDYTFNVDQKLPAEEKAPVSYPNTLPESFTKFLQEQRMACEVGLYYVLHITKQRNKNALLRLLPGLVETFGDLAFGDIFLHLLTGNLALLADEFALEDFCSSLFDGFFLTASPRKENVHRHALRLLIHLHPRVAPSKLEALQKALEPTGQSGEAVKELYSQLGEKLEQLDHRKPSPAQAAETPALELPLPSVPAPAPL
Sequence of NELF complex WT (NELF-A/B/C-D/E) (Q8IXH7 whole entry, chain 3 of 4): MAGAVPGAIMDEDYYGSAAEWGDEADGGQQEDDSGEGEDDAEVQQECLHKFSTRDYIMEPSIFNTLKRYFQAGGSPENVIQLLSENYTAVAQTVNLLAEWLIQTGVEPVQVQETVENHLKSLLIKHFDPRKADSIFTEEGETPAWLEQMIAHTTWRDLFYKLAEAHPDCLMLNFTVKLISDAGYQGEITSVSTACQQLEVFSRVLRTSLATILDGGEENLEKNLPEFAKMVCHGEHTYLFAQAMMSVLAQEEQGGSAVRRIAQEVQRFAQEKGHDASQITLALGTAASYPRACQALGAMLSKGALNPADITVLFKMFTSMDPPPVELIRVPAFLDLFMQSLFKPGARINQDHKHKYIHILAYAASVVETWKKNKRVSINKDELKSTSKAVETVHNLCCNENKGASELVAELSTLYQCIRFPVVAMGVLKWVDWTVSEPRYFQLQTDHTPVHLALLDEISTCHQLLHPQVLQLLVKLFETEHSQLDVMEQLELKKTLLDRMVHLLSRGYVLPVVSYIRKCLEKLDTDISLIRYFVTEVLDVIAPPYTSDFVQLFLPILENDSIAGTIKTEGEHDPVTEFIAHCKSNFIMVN
Sequence of NELF complex WT (NELF-A/B/C-D/E) (P18615 whole entry, chain 4 of 4): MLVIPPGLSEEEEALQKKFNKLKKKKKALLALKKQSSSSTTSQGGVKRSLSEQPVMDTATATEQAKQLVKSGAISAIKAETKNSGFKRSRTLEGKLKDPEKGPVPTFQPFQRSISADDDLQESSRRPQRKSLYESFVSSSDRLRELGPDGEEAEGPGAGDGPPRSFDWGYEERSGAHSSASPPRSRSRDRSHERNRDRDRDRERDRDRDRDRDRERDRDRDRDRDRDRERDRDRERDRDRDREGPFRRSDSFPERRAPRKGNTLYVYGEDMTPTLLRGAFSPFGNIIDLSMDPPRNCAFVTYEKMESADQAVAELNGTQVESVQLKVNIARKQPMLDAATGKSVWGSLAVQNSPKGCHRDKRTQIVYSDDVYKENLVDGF

B1: HIV-1 TAR stem-loop RNA (structured_RNA)
RNA: CCAGAUCUGAGCCUGGGAGCUCUCUGG
Q: Does B1 bind?
A: binds
